Source: article PMC7556753, “A double role of the Gal80 N terminus in activation of transcription by Gal4p” (Life Science Alliance, 2020)
Each block holds one molecule with its values, some of them ahead of it.

What was measured:
[1] = target: T1, KlGal1p with N-terminal His6-tag (NHKlGal1p) (Kluyveromyces lactis) (UniProt P09608); experiment: galactokinase inhibition titration; 10 nM NHGal1p with increasing concentrations of NHKlGal80p or NHKlGal80-KR56Ap; ADP production coupled to pyruvate kinase and lactate dehydrogenase (NADH consumption); apparent KD from the decline in KlGal1p activity
T1 sequence: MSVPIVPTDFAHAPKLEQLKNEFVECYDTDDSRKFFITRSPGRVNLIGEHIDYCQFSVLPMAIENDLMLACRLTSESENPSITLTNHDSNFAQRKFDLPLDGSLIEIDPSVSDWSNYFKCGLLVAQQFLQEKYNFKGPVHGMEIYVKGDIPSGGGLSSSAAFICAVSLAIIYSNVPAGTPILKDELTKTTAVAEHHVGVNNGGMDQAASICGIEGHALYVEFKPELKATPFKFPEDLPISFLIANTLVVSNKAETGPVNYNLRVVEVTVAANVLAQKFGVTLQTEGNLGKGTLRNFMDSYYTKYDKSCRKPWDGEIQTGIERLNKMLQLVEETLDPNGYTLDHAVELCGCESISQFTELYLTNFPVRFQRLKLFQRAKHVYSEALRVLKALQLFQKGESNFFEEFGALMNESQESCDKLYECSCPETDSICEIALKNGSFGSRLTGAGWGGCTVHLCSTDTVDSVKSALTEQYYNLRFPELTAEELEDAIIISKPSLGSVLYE

[2] = target: T1, KlGal1p with N-terminal His6-tag (NHKlGal1p) (Kluyveromyces lactis)
[3] = target: T2, KlGal1p with N-terminal His6-tag (NHKlGal1p) (Kluyveromyces lactis, UniProt P09608 1-503); experiment: galactokinase inhibition titration; 10 nM NHGal1p with increasing concentrations of NHKlGal80p or NHKlGal80-KR56Ap; ADP production coupled to pyruvate kinase and lactate dehydrogenase (NADH consumption); apparent KD from the decline in KlGal1p activity; settings: both partners purified
T2 construct: KlGal1p, galactokinase (Gal1 protein) of Kluyveromyces lactis; also called NHGal1p; source: E. coli Rosetta (DE3)-pLys, from pETNHG1, purified as described in Anders et al, 2006b; not shown: His6, N-terminal, kept
T2 sequence (looked up): T1 sequence

Kd [1]: 3100 nM
relative galactokinase activity of KlGal1p with KlGal80-K5A/R6Ap (in % of the activity in the absence of KlGal80p or its peptide) [2]: 93.6%
Molecule: KlGal80-K5A/R6Ap with N-terminal His6-tag (NHKlGal80-K5A/R6Ap) (from UniProt Q06433 1-457) (natural protein)

relative galactokinase activity of KlGal1p with the KlN17G80 peptide alone (in % of the activity in the absence of KlGal80p or its peptide) [2]: 99.4%
B1: peptide KlN17G80 (N-terminal 17 residues of KlGal80p) (peptide)
peptide: MNNNKRSKLSTVPSSRP

Kd [3]: 81 nM
B2: KlGal80p with N-terminal His6-tag (NHKlGal80p) (natural protein, Kluyveromyces lactis)
chain: MNNNKRSKLSTVPSSRPIRVGFVGLTSGKSWVAKTHFLAIQQLSSQFQIVALYNPTLKSSLQTIEQLQLKHATGFDSLESFAQYKDIDMIVVSVKVPEHYEVVKNILEHSSQNLNLRYLYVEWALAASVQQAEELYSISQQRANLQTIICLQGRKSPYIVRAKELISEGCIGDINSIEISGNGGWYGYERPMRSPEYLYDIESGVNLISNSFGHTIDVLQYITGSYFQKINAMISNNIPTQFLLDENGKRTKETISKTCPDHLLFQGILENGKVPVSCSFKGGTPVKKLTKNLVIDIHGTKGDLKIEGDAGFVEISNLVLYFYGIKNGNGSSNGTDNNGAAAIKDKEKVTKSPSPSTGTSEEEQTMEVFHLRNYNSVVGNILRIYESIADYHFLGKPESKSSRGPDDLFASTKFDKQGFRFEGFPTFKDAIILHRLIDAVFRSDKEEKTLDVSKIMI
notes: KlGal80p, Gal80 protein of Kluyveromyces lactis, wild type; 457 residues by the printed fragment aa 40-457; also called KlGal80p wild-type; source: E. coli Rosetta (DE3)-pLys, from pETNHG80, purified as described in Anders et al, 2006b; not shown: His6, N-terminal, kept
